Assay results as given in US12006343B2, “C4BP-based compounds for treating immunological diseases” (FUNDACIO INSTITUT D'INVESTIGACIO BIOMEDICA DE BELLVITGE …, priority 2017, dated 2024).
Entries after “also recorded” stand apart in the source; their conditions may differ.

Experiments:
[1] = system: lupus-prone NZBWF1 mice; test: Kaplan-Meier survival in spontaneous SLE mouse model NZBWF1; format: in vivo; conditions: CYP 50 mg/kg IP once every 10 days
Description: NZBWF1/J mice develop an autoimmune disease resembling human systemic lupus erythematosus. […] The animals were maintained under standard laboratory conditions, at 20-24° C. and 40-70% relative humidity, with 12-hour fluorescent light/12-hour dark cycle. They were feed standard diet and tap water ad libitum.
(§1) Both IP and SC administrations for C4BP(β−), CYP and PBS (150 μl/each) were performed with a 25-gauge needle during 30 s, after rinsing the skin with 70% ethanol.
(§2) The detailed administration schedule was as follows (Table 5):
(§3) One-way analysis of variance (ANOVA) with post hoc tests was performed to compare proteinuria throughout the follow up. Survival data were analyzed using Kaplan-Meier curves and long-rank test. P value<0.05 was considered significant. Data are expressed as mean±SEM.

[2] = system: lupus-prone NZBWF1 mice; test: Renal function (24 h proteinuria) in spontaneous SLE mouse model NZBWF1; format: in vivo; conditions: CYP 50 mg/kg IP every 10 days, up to week 37
Description: Mice, Study Design and Follow Up
NZB/NZW F1 or NZBWF1/J (Charles-River), NZB/NZW F1 (Jackson, code 100008) are a hybrid cross between NZB/B1NJ (Jackson, code 000684) Female x NZW/LacJ (Jackson, code 001058) Male. NZBWF1/J mice develop an autoimmune disease resembling human systemic lupus erythematosus. The inventors used 58 females (30-35 g/each) aged 15 weeks for the study (4-5 animals per cage). The animals were maintained under standard laboratory conditions, at 20-24° C. and 40-70% relative humidity, with 12-hour fluorescent light/12-hour dark cycle. They were feed standard diet and tap water ad libitum. […]
Dose Selection and Administration.
The selection of the C4BP(β−) dose for in vivo administration was based in previous studies employing complement-related proteins in immune-inflammatory pathologies. Blom et al. (Blom et al. 2009. Ann. Rheum. Dis., 68:136-42) used the C4BP isoform lacking β chain in experimental collagen-induced arthritis (CIA) and collagen antibody-induced arthritis (CAIA) mice to investigate the influence of complement activity in the treatment of rheumatoid arthritis. These authors administered intraperitoneally C4BP (2 mg/mouse) using a multiple dose-regimen once every two days in preventive and therapeutic experiments. Thus, in the current study, C4BP(β−) was administered both intraperitoneally (IP) and subcutaneously (SC) into NZBWF1 mice for three months (between six and nine months of age).
Alperovich et al (Alperovich et al. 2007. Lupus, 16:18-24) administered cyclophosphamide (CYP) to NZBWF1 mice at 50 mg/kg IP every 10 days.
as §1, §2
Body weight was determined twice monthly from the beginning to the end of follow-up. Mice were placed in metabolic cages to collect 24 h urine specimens before the onset of treatment and monthly thereafter. Blood was obtained from the tail vein at monthly intervals.
Renal Function Analysis: Proteinuria
24 h urinary protein was determined by pyrogallol red (Olympum Autoanalyzer AU400, Hamburg, Germany) in the Veterinary Clinical Biochemistry Laboratory from Universitat Autonoma de Barcelona.
as §3

[3] = system: NZBWF1 mice; format: in vivo, mouse; conditions: treatment weeks 24-36
Description: The animals were observed daily throughout the experimental period to check out any local and systemic reaction to the treatment, as well as other signs of illness and/or behavioral changes in order to obtain tolerance and toxicological information. Body weight was determined twice monthly from the beginning to the end of follow-up. Mice were placed in metabolic cages to collect 24 h urine specimens before the onset of treatment and monthly thereafter. Blood was obtained from the tail vein at monthly intervals.

[4] = system: NZBWF1 mice; conditions: CYP 50 mg/kg IP every 10 days; Alperovich et al. 2007; cited from earlier work
[5] = system: Balb/c male mice, CAIA model; format: in vivo, mouse
Description: Collagen-antibody induced arthritis (CAIA) is a simple mouse model of human rheumatoid arthritis (RA) induced by the systemic administration of a cocktail of monoclonal antibodies directed against conserved auto-antigenic collagen type II epitopes, followed by a single injection of lipopolysaccharide (LPS). CAIA is a useful model to study the effector inflammatory phase of arthritis without involving the priming phase of the immune response. The murine CAIA model shares several clinical, immunological and pathological features with RA. Therefore, this model is useful to study the pathogenic mechanisms involved in RA disease as well as for testing new therapies.
Balb/c male mice aged 7-8 weeks were supplied by Envigo. The animals were acclimated during 12 days. The animals were maintained in an environmentally controlled room with ventilation, temperature (22±2° C.), relative humidity (35-65%), and cycle light/dark (12 h/12 h). The animals were housed in groups of 3-5 animals/cage. The maintenance diet was supplied by Harlan Interfauna Ibérica, S. L. (“2014 Harlan Teklad Global Diets”) and they were feed diet and water ad libitum.
Plasmatic C4BP(β−) was supplied at a concentration of 6.2 mg/ml. C4BP(β−) solutions were prepared to the desired concentration 0.33 mg/ml (for 50 μg doses) by dilution with Dulbecco's phosphate-buffered saline (DPBS) of C4BP(β−) 6.2 mg/ml stock solution.
Two reference compounds were used: dexamethasone (Sigma, Ref. D1756) and Enbrel® (etanercept) (Pfizer, Ref. 655950).
Reference compound dexamethasone was dissolved in vehicle (0.1% Tween-80+99% carboxymethyl cellulose (CMC) (0.5% w/v) in water at a concentration of 0.1 mg/ml.
Enbrel® was prepared at 6 mg/ml in DPBS by dilution of 50 mg/mL stock solution.
Experimental Procedure Day 0: Arthritis Induction
On day 0, animals for experimental group C4BPd3 were randomly selected (n=8) and identified using tail code numbers and weighted.
Each mouse was sensitized by the administration of 2 mg anti-type II collagen antibodies cocktail (ArthritoMAB™ cocktail solution, 0.2 mL, i.v., day 0) in the caudal vein.
Day 3: LPS Synchronization
Animals were intraperitoneally administered with 0.1 mL of LPS solution (0.7 mg/ml, 70 μg/animal).
50 μg of C4BP(β−) were administered subcutaneously at day 3 to treatment group C4BPd3.
50 μg of C4BP(β−) were administered subcutaneously at day 5 to treatment group C4BPd3.
Day 5: Animal Distribution
On day 5 after sensitization, the rest of the animals developing clinical signs of arthritis (n=18) were evaluated and distributed in base of CAIA+incidence. Animals were homogeneously randomized (arthritis score) into the CAIA control group, dexamethasone (1 mg/kg at days 5-11, p.o.) and Enbrel®-treated groups (30 mg/kg at days 5-11, s.c.) (n=6). Animals were identified using tail code numbers and weighted.
Group 2 was not included in the distribution because of the previous test item administration.
The arthritis score was determined using the criteria of Table 9.
Treatment: • C4BPd3 group: 50 μg of C4BP(β−) were subcutaneously injected to animals on days 3 and 5. Volume: 0.150 mL. • Reference compound treatments and CAIA control groups (days 5-11): • Enbrel®: 30 mg/kg of Enbrel® was subcutaneously administered to Enbrel group from days 5 to 11. Volume: 5 mL/kg. • Dexamethasone: 1 mg/kg dexamethasone was orally administered to dexamethasone group from days 5 to 11. Volume: 10 mL/kg. • CAIA control group: 0.150 mL of DPBS was subcutaneously administered from days 5 to 11. Arthritis Monitoring:
Body weights were registered daily from days 0-12 in C4BPd3 and from days 5-12 in CAIA control, dexamethasone and Enbrel® groups. Arthritis scores were determined by the same observer in order to avoid observer bias.
The study was finished at day 12.
Animals were anesthetized with isoflurane. Ankles and wrists thickness were measured using a dial thickness gauge. Serum samples were collected and stored at −20° C. […]

[6] = system: human monocyte-derived DCs; test: Immunomodulatory activity over human monocyte-derived DCs: CD83/CD86 surface expression by flow cytometry after LPS maturation; format: cell-based; conditions: FIG. 4
Description: In Vitro Functional Assessment of the Immunomodulatory Activity of Full-Length C4BP(β−) and C4BP(β−) Variants Over DCs
The inventors used for the in vitro study both C4BP(β+) (WT) and recombinant C4BP(β−) isoforms, and the above-referred mutants or variants: Mutant 1 and Mutant 2. C4BP(β+) isoforms refer to the major C4BP α7β1 plus the minor C4BP α6β1 isoforms (both in complex with ProS) purified from pooled human plasma.
RPMI 1640 was supplemented with 100 μg/ml of streptomycin, 100 IU/ml of penicillin, 2 mM L-glutamine (all from Invitrogen, Carlsbad, CA) and 10% heat-inactivated fetal bovine serum (Linus, Cultek, Spain) (complete medium), unless otherwise stated.
Peripheral blood mononuclear cells (PBMCs) were obtained from buffy coat preparations collected from healthy donors from the Blood and Tissue Bank (Barcelona, Spain) after Ficoll-Paque™ density centrifugation (GE Healthcare Bio-Sciences AB; Uppsala, Sweden). For surface phenotype determination, monocytes were plated at 1×10^6 cells/ml in 60 mm culture plates (Corning, Spain), in RPMI 1640 medium without serum, and allowed to adhere for 2 h at 37° C. in 5% CO2. The non-adherent cells were removed by washing in PBS.
Monocyte-derived DCs were generated supplementing the monocyte cultures with complete RPMI 1640 medium plus GM-CSF (800 UI/ml) and IL-4 (500 UI/ml) (both from Gentaur, Kampenhout, Belgium) at day 0 and day 3 of culture. For DC maturation, at day 5 iDCs were further stimulated for 48 h with 5 μg/ml LPS (Escherichia coli 055.B5, Sigma L2880, Copenhagen, Denmark).
Staining using the fluorescent dye 7-amino-actinomycin D (7-AAD) (BD Pharmigen) and flow cytometry analysis was employed to assess the viability status of C4BP-treated and untreated DCs.
Cell surface phenotypes were analyzed by flow cytometry using the following mAbs: FITC-conjugated anti-CD83 (HB15a) and PE-conjugated anti-CD86 (HA5.2B7) (all from Beckman-Coulter). The respective isotype controls FITC-conjugated anti-IgG2b (H2) and PE-conjugated anti-IgG2b (H2), were from the same commercial sources. After washing with PBS, cells were subsequently stained with 3 μl mAb/10^5 cells in 100 μl of FACS buffer (PBS containing 1% BSA and 0.1% sodium azide) for 20 min at room temperature. To exclude dead cells and debris, DCs were gated according to forward scatter (FSC) and side scatter (SSC) parameters. Stained cells were analyzed using a FACSCalibur (Becton Dickinson, Franklin Lakes, NJ) equipped with CellQuestPro software (Becton Dickinson).
In Vitro Functional Assessment of C4BP(β−) Immunomodulatory Activity Over DCs
The inventors used for the in vitro study both C4BP(+) and C4BP(β−) isoforms. C4BP(3+) isoforms refer to the major C4BP α7β1 plus the minor C4BP α6β1 isoforms (both in complex with ProS) purified from pooled human plasma, as previously described (Dahlbäck B. 1983. Biochem J., 209:847-56).

## O=P1(N(CCCl)CCCl)NCCCO1 (centres unmarked) [CYP, Cyclophosphamide, reference compound]
[1]
  survival: survived throughout the period of observation; also recorded: increased survival
[2]
  development of proteinuria: prevented the development of proteinuria
[3]
  toxicity and behavioral changes: neither toxicity nor behavioral changes were observed
[4]
  histological lesions: arrested and reversed almost all histological lesions
  serum anti-DNA antibodies: appropriately controlled

B1: C4BP(β−): plasma-purified C4BP minor isoform lacking beta chain; C4BPd3 is the CAIA group given 50 μg sc at days 3 and 5 (protein, UniProt P04003 49-597, looked up)
C4b-binding protein alpha …: NCGPPPTLSFAAPMDITLTETRFKTGTTLKYTCLPGYVRSHSTQTLTCNSDGEWVYNTFCIYKRCRHPGELRNGQVEIKTDLSFGSQIEFSCSEGFFLIGSTTSRCEVQDRGVGWSHPLPQCEIVKCKPPPDIRNGRHSGEENFYAYGFSVTYSCDPRFSLLGHASISCTVENETIGVWRPSPPTCEKITCRKPDVSHGEMVSGFGPIYNYKDTIVFKCQKGFVLRGSSVIHCDADSKWNPSPPACEPNSCINLPDIPHASWETYPRPTKEDVYVVGTVLRYRCHPGYKPTTDEPTTVICQKNLRWTPYQGCEALCCPEPKLNNGEITQHRKSRPANHCVYFYGDEISFSCHETSRFSAICQGDGTWSPRTPSCGDICNFPPKIAHGHYKQSSSYSFFKEEIIYECDKGYILVGQAKLSCSYSHWSAPAPQCKALCRKPELVNGRLSVDKDQYVEPENVTIQCDSGYGVVGPQSITCSGNRTWYPEVPKCEWETPEGCEQVLTGKRLMQCLPNPEDVKMALEVYKLSLEIEQLELQRDSARQSTLDKEL
modifications: alpha-chain-only isoform, plasma-purified
[5]; 50 μg sc at days 3 and 5
  protection lasting until day after the arthritis induction: ≥ 12 days
[5]; C4BP(β−) 50 μg sc days 3 and 5, dexamethasone 1 mg/kg po days 5-11
  inhibition of arthritis score vs. CAIA controls AUC: 47%
[5]; day 12, C4BP(β−) 50 μg sc d3 and d5, dexamethasone 1 mg/kg po d5-11, Enbrel 30 mg/kg sc d5-11
  ankle thickness: 2.74±0.08 mm
[5]; day 12, regimens as Table 8
  wrist thickness vs. CAIA control: No changes
[5]; mouse, in vivo
  body weight vs CAIA control group: No remarkable differences
[5]; regimens as Table 8, vs CAIA control group
  arthritis scores / progression of arthritis: significantly ameliorated the progression of arthritis
[6]; MoDCs pre-incubated with 5 μg/ml protein, LPS challenge
  semi-mature, anti-inflammatory phenotype conferred to LPS-matured MoDCs (immunomodulatory activity): able to confer an analogous semi-mature, anti-inflammatory phenotype
[6]; human MoDCs, 5 μg/ml C4BP isoform, LPS 5 μg/ml
  CD83 and CD86 surface marker expression: restrain similarly CD83 and CD86 surface marker expression
[3]
  toxicity and behavioral changes: neither toxicity nor behavioral changes were observed
